The source of these data is US12616751B2, “Photosensitizing antibody-fluorophore conjugates” (The USA, as represented by the Secretary, Department of …, priority 2010, dated 2026).

For one data set, the system named is A431 cells. Put plainly: Fluorescence microscopy of Pan-IR700 in A431 cells. Particulars: after 24 h incubation. The data set is classed as cell-based. The protocol: EGFR-expressing A431 cells were used as the target HER1+ cells. […] Cells were grown in RPMI 1640 supplemented with 10% fetal bovine serum and 1% penicillin/streptomycin in tissue culture flasks in a humidified incubator at 37° C. in an atmosphere of 95% air and 5% carbon dioxide. A431 or Balb/3T3/DsRed cells were seeded on cover glass-bottomed dishes and incubated for 24 hours. Pan-IR700 was added to the culture medium at 10 μg/mL and incubated either for 1 hour on ice or 6 hours at 37° C., then cells were washed with PBS. Culture medium was replaced with phenol red-free medium after washing with phosphate buffered saline (PBS).
Fluorescence microscopy was performed as described in Example 2 to detect the antigen-specific localization of IR700.
Reagents. […] The protein concentrations were determined with Coomassie Plus protein assay kit (Pierce Biotechnology) by measuring light absorption at 595 nm (8453 Value System; Agilent Technologies). […] Quenching efficiency (QE) for a particular conjugation is defined as the fluorescence intensity with SDS divided by fluorescence intensity without SDS. […] Fluorescence lifetime measurements. […] Lifetime values and lifetime mapping were calculated to fit fluorescence temporal point-spread functions (TPSFs) as single-exponential models with the Fit TPSF tool. […] Power densities were measured with an optical power meter (PM 100, Thorlabs). […]

The subject of a further data set is A431 tumor. Put plainly: In vivo fluorescence imaging of Pan-IR700 in A431 tumors. Further details: species or system mice. As to the method:
To confirm antigen specific localization of Pan-IR700, 1×10^6 of 3T3/HER2 cells (HER1 negative) were injected subcutaneously in the right dorsum at the same time of A431 cells injection. […] Regions of interest (ROI) for both tumor and background were placed for equivalent sized areas containing the same number of pixels. Tumor to background ratio (TBR) was calculated using the following formula: TBR=((mean tumor intensity)−(mean background intensity))/((mean non-tumor intensity)−(mean background intensity)).

The subject of a further data set is MDA-MB-468 cells. The data set can be described thus: In vitro PIT, microscopy before and after. The data set is classed as cell-based. The protocol: For photoimmunotherapy (PIT), cells were seeded on 35 mm cover glass-bottomed dishes and incubated 24 hours. […] Culture medium was replaced with phenol red-free medium after washing with phosphate buffered saline (PBS). Cells were irradiated with light at 670 nm to 690 nm using a red light emitting diode (LED; FluorVivo; INDEC Systems Inc., Capitola, Calif.) with a power density of 2.6 mW cm^−2 as measured with optical power meter (PM 100, Thorlabs, Newton, N.J.). Cell viability was assessed 1 hour after treatment with LIVE/DEAD® Fixable Green Dead Cell Stain Kit (Invitrogen). After the treatment, cells were trypsinized and washed with PBS. Green fluorescent reactive dye was added in the cell suspension and incubated at room temperature for 30 minutes. Cells were then analyzed on flow cytometer (FACS Calibur, BD BioSciences, San Jose, Calif.).
This example describes additional results showing that the disclosed antibody-IR700 compounds selectively kill cells that express the appropriate protein. The photoimmunotherapy (PIT) methods are described in Example 2.

On to “Pan-IR700: Panitumumab (anti-human EGFR IgG2 MAb) conjugated to IR700; about 3 to 4 IR700 per antibody”, for which the “cell damage following exposure to NIR light” value in the data set with A431 cells is “immediate damage was induced in the cell membranes and lysosomes”. Besides, in the data set on A431 tumor (1 day after injection), the “fluorescence intensity of tumor, 300 μg versus 50 μg injection” value is “more than 3 times”. Moreover, in the data set with A431 tumor (mouse, in vivo), the “TBR, 300 μg versus 50 μg injection” value is given as “lower”; the “fluorescence intensity in tumor over time” value is listed as “decreased gradually over days”; the “other localization of IR700 (biodistribution)” value is “no other specific localization of IR700 except for bladder accumulation on day 1”; the “tumor localization (in vivo fluorescence imaging)” value is given as “localized to the A431 tumor”. Also, the “cell killing by PIT (microscopy)” value in the data set on MDA-MB-468 cells is on record as “specifically killed”.
